Measured values reported in paper PMC5511190.

B1: 14-3-3 protein eta (natural protein)
chain: MGDREQLLQRARLAEQAERYDDMASAMKAVTELNEPLSNEDRNLLSVAYKNVVGARRSSWRVISSIEQKTMADGNEKKLEKVKAYREKIEKELETVCNDVLALLDKFLIKNCNDFQYESKVFYLKMKGDYYRYLAEVASGEKKNSVVEASEAAYKEAFEISKEHMQPTHPIRLGLALNFSVFYYEIQNAPEQACLLAKQAFDDAIAELDTLNEDSYKDSTLIMQLLRDNLTLWTSDQQDEEAGEGN
B2: Guanine deaminase (natural protein)
chain: MCAARTPPLALVFRGTFVHSTWTCPMEVLRDHLLGVSDSGKIVFLEESSQQEKLAKEWCFKPCEIRELSHHEFFMPGLVDTHIHAPQYAFAGSNVDLPLLEWLNKYTFPTEQRFRSTDVAEEVYTRVVRRTLKNGTTTACYFGTIHTDSSLILAEITDKFGQRAFVGKVCMDLNDTVPEYKETTEESVKETERFVSEMLQKNYPRVKPIVTPRFTLSCTETLMSELGNIAKTHDLYIQSHISENREEIEAVKSLYPSYKNYTDVYDKNNLLTNKTVMAHGCYLSEEELNIFSERGASIAHCPNSNLSLSSGLLNVLEVLKHKVKIGLGTDVAGGYSYSMLDAIRRAVMVSNVLLINKVNEKNLTLKEVFRLATLGGSQALGLDSEIGNFEVGKEFDALLINPRASDSPIDLFYGDFVGDISEAVIQKFLYLGDDRNIEEVYVGGKQVVPFSSSV
B3: Profilin-2 (natural protein)
chain: MAGWQSYVDNLMCDGCCQEAAIVGYCDAKYVWAATAGGVFQSITPVEIDMIVGKDREGFFTNGLTLGAKKCSVIRDSLYVDGDCTMDIRTKSQGGEPTYNVAVGRAGRVLVFVMGKEGVHGGGLNKKAYSMAKYLRDSGF
B4: WD repeat-containing protein 1 (natural protein)
chain: MPYEIKKVFASLPQVERGVSKILGGDPKGDHFLYTNGKCVILRNIDNPAIADIYTEHAHQVVVAKYAPSGFYIASGDISGKLRIWDTTQKEHLLKYEYQPFAGKIKDIAWTEDSKRIAVVGEGREKFGAVFLWDTGSSVGEITGHNKVINSVDIKQTRPYRLATGSDDNCAAFFEGPPFKFKFTIGDHSRFVNCVRFSPDGNRFATASADGQIFIYDGKTGEKVCALGESKAHDGGIYAISWSPDSTHLLSASGDKTSKIWDVNVNSVVSTFPMGSNVLDQQLGCLWQKDHLLSISLSGYINYLDKNNPSKPLRVIKGHSKSIQCLTVHRNGGKSYIYSGSHDGHINYWDSETGENDSFSGKGHTNQVSRMTVNESEQLVSCSMDDTVRYTNLTLRDYSGQGVVKLDVQPKCVAVGPGGYTVVVCIGQIVLLKDQKKCFSIDNPGYEPEVVAVHPGGDTVAVGGTDGNVRVYSILASTLKDEGKLLEAKGPVTDVAYSHDGAFLAVCDASKVVTVFSVADGYSENNVFYGHHAKIVCLAWSPDNEHFASGGMDMMVYVWTLSDPETKVKIQDAHRLHHVSSLAWLDEHTLVTTSHDASVKEWTITY
B5: 14-3-3 protein beta/alpha (natural protein)
chain: MTMDKSELVQKAKLAEQAERYDDMAAAMKAVTEQGHELSNEERNLLSVAYKNVVGARRSSWRVISSIEQKTERNEKKQQMGKEYREKIEAELQDICNDVLELLDKYLILNATQAESKVFYLKMKGDYFRYLSEVASGENKQTTVSNSQQAYQEAFEISKKEMQPTHPIRLGLALNFSVFYYEILNSPEKACSLAKTAFDEAIAELDTLNEESYKDSTLIMQLLRDNLTLWTSENQGDEGDAGEGEN
B6: CaM kinase-like vesicle-associated protein (natural protein)
chain: MPFGCVTLGDKKNYNQPSEVTDRYDLGQVIKTEEFCEIFRAKDKTTGKLHTCKKFQKRDGRKVRKAAKNEIGILKMVKHPNILQLVDVFVTRKEYFIFLELATGREVFDWILDQGYYSERDTSNVVRQVLEAVAYLHSLKIVHRNLKLENLVYYNRLKNSKIVISDFHLAKLENGLIKEPCGTPEYLAPEVVGRQRYGRPVDCWAIGVIMYILLSGNPPFYEEVEEDDYENHDKNLFRKILAGDYEFDSPYWDDISQAAKDLVTRLMEVEQDQRITAEEAISHEWISGNAASDKNIKDGVCAQIEKNFARAKWKKAVRVTTLMKRLRAPEQSGTAATQSASDAATPGAAGGAIAAAAAAAAAGGAASASGASATAATEGGAGCAAKSDDIASADRSATPATDGSATPATDGSVTPATDGSITPATDGSVTPATDRSATPATDGRATPATEESTVPATQSSALPAAKAAATPEPAVAQPDSTALEGATGQAPPSSKGEEATGCAQESQRVETS
B7: 14-3-3 protein theta (natural protein)
chain: MEKTELIQKAKLAEQAERYDDMATCMKAVTEQGAELSNEERNLLSVAYKNVVGGRRSAWRVISSIEQKTDTSDKKLQLIKDYREKVESELRSICTTVLELLDKYLIANATNPESKVFYLKMKGDYFRYLAEVACGDDRKQTIENSQGAYQEAFDISKKEMQPTHPIRLGLALNFSVFYYEILNNPELACTLAKTAFDEAIAELDTLNEDSYKDSTLIMQLLRDNLTLWTSDSAGEECDAAEGAEN

target: GST-LRRK2 WD40 G2385R (human) (UniProt Q5S007); assay: affinity purification with mass spectrometry; 5 µg GST fusion protein on glutathione-Sepharose incubated with adult mouse brain lysate or crude SV fraction (LP2) (1 mg protein) 2 h at 4 °C; washes 150 mM NaCl, 2 mM EDTA, 50 mM Tris-HCl, 0.2% Triton, pH 7.4; LC-MS/MS with label-free quantification, 4 samples per condition (GST-control, GST-WD40, GST-WD40-G2385R)
Sequence (Q5S007 whole entry G2385R, the tested form may be a part): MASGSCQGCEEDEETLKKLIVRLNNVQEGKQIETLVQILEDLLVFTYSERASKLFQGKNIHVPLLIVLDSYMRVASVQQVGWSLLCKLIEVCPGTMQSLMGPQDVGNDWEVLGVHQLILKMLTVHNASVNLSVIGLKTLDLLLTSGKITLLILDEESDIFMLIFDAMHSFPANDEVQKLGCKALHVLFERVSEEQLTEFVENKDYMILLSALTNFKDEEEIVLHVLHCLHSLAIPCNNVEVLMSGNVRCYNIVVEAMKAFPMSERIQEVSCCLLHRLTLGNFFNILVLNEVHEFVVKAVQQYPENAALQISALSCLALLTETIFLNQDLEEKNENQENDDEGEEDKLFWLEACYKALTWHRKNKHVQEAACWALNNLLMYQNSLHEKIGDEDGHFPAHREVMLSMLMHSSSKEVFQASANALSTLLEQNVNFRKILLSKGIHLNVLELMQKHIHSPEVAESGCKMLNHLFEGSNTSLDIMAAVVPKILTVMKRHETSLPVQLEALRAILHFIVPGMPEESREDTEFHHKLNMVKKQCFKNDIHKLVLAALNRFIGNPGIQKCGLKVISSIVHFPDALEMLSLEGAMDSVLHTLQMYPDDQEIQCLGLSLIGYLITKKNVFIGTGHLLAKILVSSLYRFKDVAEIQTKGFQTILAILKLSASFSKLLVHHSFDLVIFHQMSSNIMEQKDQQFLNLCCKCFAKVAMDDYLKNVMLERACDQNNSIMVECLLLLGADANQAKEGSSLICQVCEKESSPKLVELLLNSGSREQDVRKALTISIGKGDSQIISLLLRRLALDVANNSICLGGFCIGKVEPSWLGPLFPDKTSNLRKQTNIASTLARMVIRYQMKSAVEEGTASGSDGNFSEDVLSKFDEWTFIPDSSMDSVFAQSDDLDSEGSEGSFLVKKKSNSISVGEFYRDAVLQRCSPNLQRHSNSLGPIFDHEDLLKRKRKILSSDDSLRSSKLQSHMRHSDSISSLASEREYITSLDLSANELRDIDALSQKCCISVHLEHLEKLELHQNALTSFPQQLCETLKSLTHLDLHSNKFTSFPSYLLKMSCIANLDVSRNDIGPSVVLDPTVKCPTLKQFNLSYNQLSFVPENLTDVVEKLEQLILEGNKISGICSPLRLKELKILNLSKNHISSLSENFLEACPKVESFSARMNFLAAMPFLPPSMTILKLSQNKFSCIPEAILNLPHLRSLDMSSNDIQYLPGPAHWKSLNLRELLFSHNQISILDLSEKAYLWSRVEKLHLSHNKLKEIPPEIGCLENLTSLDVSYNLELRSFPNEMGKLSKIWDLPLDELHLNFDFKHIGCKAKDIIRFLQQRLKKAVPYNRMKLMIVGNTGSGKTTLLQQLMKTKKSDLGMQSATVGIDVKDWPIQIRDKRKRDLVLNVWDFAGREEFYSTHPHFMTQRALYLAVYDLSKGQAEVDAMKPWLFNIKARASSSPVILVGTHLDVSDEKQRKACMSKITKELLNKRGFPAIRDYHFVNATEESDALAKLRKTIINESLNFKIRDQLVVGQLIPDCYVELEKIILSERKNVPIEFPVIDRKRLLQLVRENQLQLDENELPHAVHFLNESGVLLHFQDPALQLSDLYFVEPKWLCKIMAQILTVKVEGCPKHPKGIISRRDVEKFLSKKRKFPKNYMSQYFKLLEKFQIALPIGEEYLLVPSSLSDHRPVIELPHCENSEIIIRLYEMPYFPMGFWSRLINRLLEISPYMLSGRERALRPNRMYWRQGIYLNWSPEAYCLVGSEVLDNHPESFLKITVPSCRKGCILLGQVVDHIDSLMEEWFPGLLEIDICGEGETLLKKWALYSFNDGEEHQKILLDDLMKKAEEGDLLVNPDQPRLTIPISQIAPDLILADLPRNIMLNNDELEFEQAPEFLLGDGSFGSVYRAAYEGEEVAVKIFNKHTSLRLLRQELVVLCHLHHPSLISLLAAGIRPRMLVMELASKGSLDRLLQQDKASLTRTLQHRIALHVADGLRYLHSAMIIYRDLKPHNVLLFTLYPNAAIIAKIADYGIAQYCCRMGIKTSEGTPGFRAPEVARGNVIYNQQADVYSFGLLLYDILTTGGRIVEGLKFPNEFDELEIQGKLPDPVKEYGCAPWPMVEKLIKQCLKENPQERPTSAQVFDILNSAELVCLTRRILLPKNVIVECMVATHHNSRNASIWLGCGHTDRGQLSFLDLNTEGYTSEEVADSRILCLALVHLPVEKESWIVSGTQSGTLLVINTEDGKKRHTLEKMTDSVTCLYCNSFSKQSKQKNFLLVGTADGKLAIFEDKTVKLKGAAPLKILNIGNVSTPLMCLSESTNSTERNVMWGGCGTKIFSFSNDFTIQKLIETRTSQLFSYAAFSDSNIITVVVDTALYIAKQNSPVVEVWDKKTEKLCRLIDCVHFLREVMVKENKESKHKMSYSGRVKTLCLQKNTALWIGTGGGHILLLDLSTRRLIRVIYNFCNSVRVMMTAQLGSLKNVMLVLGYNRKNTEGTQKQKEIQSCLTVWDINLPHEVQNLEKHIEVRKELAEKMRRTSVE

Binder | G2385R/WT (ratio of abundance in G2385R versus wild-type bait)
B1 | 0.52
B2 | 0.15
B3 | 0.37
B4 | 0.34
B5 | 0.37
B6 | 0.58
B7 | 0.35
